US20090221680, “Aptamers that bind thrombin with high affinity” (published 2009)

These binders were tested against thrombin (alpha-thrombin) (Homo sapiens, UniProt P00734;P00734 P00734:315-363,P00734:364-622) (assay: filter; 10 nM thrombin). Conditions: not given.

In order of falling binding signal:
1. TCCCGGATCCTCGTGGGTATTGTTGGGTTGGGTGGCTGAGGATCGATC (ssDNA) [AMX(399)_G12]  40.6 % bound
2. TCCCGGATCTGTGGTAGGTTTGTTGGGTTGGGTGGCTGAGGATCGATC (ssDNA) [AMX(398)_E12]  40.4 % bound
3. TCCCATCGGTCCGGGGTAATTTACTGGGTCGGGTGGCTGAGGATCGATC (ssDNA) [AMX(398)_A8]  40 % bound
4. TCCCGGTTGTCGATTCTGGTATTGTTGGGCTGGGTGGCTGAGGATCGATC (ssDNA) [AMX(399)_H7]  38.1 % bound
5. TCCCAACGATCTGTGGTTTTTTTGTTCTGGGTGGCTGAGGATCGATC (ssDNA) [AMX(398)_C1]  35.8 % bound
6. TCCCTGGAGATCCGGGGTAGTATACTGGTTTGGGTGGCTGAGGATCGATC (ssDNA) [AMX(398)_A12]  35.4 % bound
7. TCCTGTCGATCGGTACGTTTTCGTTTCTGGGTGGCTGAGGATCGATC (ssDNA) [AMX(398)_C11]  35.1 % bound
8. TCCCTTGTCGATTCTGGTATGTTTTGGTCCGGGTGGCTGAGGATCGATC (ssDNA) [AMX(398)_D7]  35 % bound
9. TCCCAATCGAGCCGGGGTTTGTTTGTTCTGGGTGGCTGAGGATCGATC (ssDNA) [AMX(398)_B1]  31.3 % bound
10. TCCCATCGATTTGGGGTATGTTATGGGCTCGGGTGGCTGAGGATCGATC (ssDNA) [AMX(398)_A6]  31.1 % bound
11. TCCCATCGAGACGGGGTGTCTTTTGTGGCTTGGGTGGCTGAGGATCGATC (ssDNA) [AMX(398)_E6]  29.5 % bound
12. TCCCGTCGAGCCGGGGTATGATTATGGGTGGGGTGGCTGAGGATCGATC (ssDNA) [AMX(398)_A9]  28.3 % bound
13. TCCCATGATTGGCCGGGGTGTCTTTTGGGTCGGGTGGCTGAGGATCGATC (ssDNA) [AMX(398)_C6]  28 % bound
14. TCCCTTGATCTGGGGTGCGTTATTGTGGTTCGGGTGGCTGAGGATCGATC (ssDNA) [AMX(398)_E7]  27.9 % bound
15. TCCCTCGATCTTGGGGTACTATAGTGGTGTGGGTGGCTGAGGATCGATC (ssDNA) [AMX(398)_B10]  26.8 % bound
16. TCCCATTGATCTGTGGTGGTTTTGTGGTTTGGGTGGCTGAGGATCGATC (ssDNA) [AMX(398)_A2]  26.7 % bound
17. TCCCTATCGAGCTGTGGTAGTATTCTGGTTTGGGTGGCTGAGGATCGATC (ssDNA) [AMX(398)_A7]  26.5 % bound
18. TCCCTATCGACCGGGGTTCTTTCGTGGTTCGGGTGGCTGAGGATCGATC (ssDNA) [AMX(398)_E8]  26.4 % bound
19. TCCCGATCGGACGTGGTGGGTTACTTCTGGGTGGCTGAGGATCGATC (ssDNA) [AMX(398)_E5]  25.6 % bound
20. TCCCATCGATCCGGGGTATTCTTATTTCTGGGTGGCTGAGGATCGATC (ssDNA) [AMX(398)_E1]  23.4 % bound
21. TCCCTGGTATCGTATCCAAAGGGGTGGTGTGGGTGGCTGAGGATCGATC (ssDNA) [AMX(399)_H8]  23.3 % bound
22. TCCCTGCAATCGGTGCTCGAGAGGTTGGGTGGGTGGCTGAGGATCGATC (ssDNA) [AMX(398)_C12]  22.8 % bound
23. TCCCATCGAACCTCGAGGGTATTGTTGGTTTGGGTGGCTGAGGATCGATC (ssDNA) [AMX(399)_H1]  21.2 % bound
24. TCCCGATCGTTTCGTGGGGTAGTGTTGGTTGGGGTGGCTGAGGATCGATC (ssDNA) [AMX(398)_C9]  20.7 % bound
25. TCCCGATTTGAGTTTAGTAGGGTGGGTAGGATGGTGGCTGAGGATCGATC (ssDNA) [AMX(398)_D1]  20.7 % bound
26. TCCCGATTATCCGTTGGTATTGTTGGTCTGGGTGGCTGAGGATCGATC (ssDNA) [AMX(398)_B12]  20.1 % bound
27. TCCCATGATCGGGTCGGTATTTGTTGGTCAGGGTGGCTGAGGATCGATC (ssDNA) [AMX(398)_D3]  20 % bound
28. TCCCAGATGTGATCCGTATCCTGGTTTGGTTGGGTGGCTGAGGATCGATC (ssDNA) [AMX(398)_B3]  17.5 % bound
29. TCCCCATCGATCCTGGTCTCTTTTGTTCTGGGTGGCTGAGGATCGATC (ssDNA) [AMX(399)_G11]  12.8 % bound
30. TCCCTGATCCTTAGGCTAGGTTGGGTGGGGTGGTGGCTGAGGATCGATC (ssDNA) [AMX(398)_B5]  12.5 % bound
31. TCCCAGCGGTCCTAATGGGTAGTGTTGGTTTGGGTGGCTGAGGATCGATC (ssDNA) [AMX(398)_D5]  12 % bound
32. TCCCGGAGATCTGAGGTGTTTTATTGGTTTGGGTGGCTGAGGATCGATC (ssDNA) [AMX(399)_H6]  8.48 % bound
33. TCCCAAGGATCCGGGGTAGTTAGTGGCTGAGGTGGCTGAGGATCGATC (ssDNA) [AMX(398)_C2]  0.2 % bound

The binders below were run against prothrombin (Homo sapiens, UniProt P00734 P00734:44-622) (assay: filter; 50 nM prothrombin). Conditions: tags: Athens Research.
Method: Dot blot binding assays were performed throughout the selections to monitor the protein binding affinity of the pools. Trace ³²P-labeled RNA was combined with a dilution series of human Thrombin (1 nM-1000 nM) and incubated at room temperature for 30 minutes in 1×DPBS (w/ Ca²⁺ and Mg²⁺) (Gibco, Catalog #14040, Invitrogen, Carlsbad, Calif.) plus 0.1 mg/ml BSA in a final volume of 30 μl. The binding reactions were analyzed by nitrocellulose filtration using a Minifold I dot-blot, 96-well vacuum filtration manifold (Schleicher & Schuell, Keene, N.H.). A three-layer filtration medium was used, consisting (from top to bottom) of Protran nitrocellulose (Schleicher & Schuell, Keene, N.H.), Hybond-P nylon (Amersham Biosciences, Piscataway, N.J.) and GB002 gel blot paper (Schleicher & Schuell, Keene, N.H.). RNA that is bound to protein is captured on the nitrocellulose filter, whereas the non-protein bound RNA is captured on the nylon filter. The gel blot paper was included simply as a supporting medium for the other filters. Following filtration, the filter layers were separated, dried and exposed on a phosphor screen (Amersham Biosciences, Piscataway, N.J.) and quantified using a Storm 860 Phosphorimager® blot imaging system (Amersham Biosciences, Piscataway, N.J.).
Based on pool binding monitored throughout the selections as described above, Round 9 Pools from both Selection #2 and #3 were also cloned using a TOPO TA Cloning kit (Invitrogen, Carlsbad, Calif.) according to manufacturer's instructions, and sequenced. Of the 136 sequences obtained from Round 9 of both selections, 130 unique sequences were selected for assaying in a single-point dot blot screen against thrombin and prothrombin to test for selective binding to thrombin. Clones were ordered from IDT (Coralville, Iowa) at 25 μmole synthesis scale. Clone transcripts were 5′ end labeled with γ̅³²P ATP and spin purified with Centrisep columns (Princeton Separations, Adelphia, N.J.) to remove excess label. Trace amounts of labeled clone were incubated with +/−10 nM Thrombin (or +/−50 nM prothrombin) and 0.1 mg/ml BSA in a total volume of 30 μl 1×DPBS (w/ Ca²⁺ and Mg²⁺) (Gibco, Catalog #14040, Invitrogen, Carlsbad, Calif.) for 30 minutes. Post incubation, the binding reaction applied the dot-blot binding assay apparatus previously described.

In order of rising binding signal:
1. TCCCAAGGATCCGGGGTAGTTAGTGGCTGAGGTGGCTGAGGATCGATC (ssDNA) [AMX(398)_C2]  0.66 % bound
2. TCCCGGAGATCTGAGGTGTTTTATTGGTTTGGGTGGCTGAGGATCGATC (ssDNA) [AMX(399)_H6]  6.32 % bound
3. TCCCTGATCCTTAGGCTAGGTTGGGTGGGGTGGTGGCTGAGGATCGATC (ssDNA) [AMX(398)_B5]  8.27 % bound
4. TCCCATGATTGGCCGGGGTGTCTTTTGGGTCGGGTGGCTGAGGATCGATC (ssDNA) [AMX(398)_C6]  11.6 % bound
5. TCCCCATCGATCCTGGTCTCTTTTGTTCTGGGTGGCTGAGGATCGATC (ssDNA) [AMX(399)_G11]  11.8 % bound
6. TCCCGATTTGAGTTTAGTAGGGTGGGTAGGATGGTGGCTGAGGATCGATC (ssDNA) [AMX(398)_D1]  11.8 % bound
7. TCCCAGCGGTCCTAATGGGTAGTGTTGGTTTGGGTGGCTGAGGATCGATC (ssDNA) [AMX(398)_D5]  12.9 % bound
8. TCCCTGGTATCGTATCCAAAGGGGTGGTGTGGGTGGCTGAGGATCGATC (ssDNA) [AMX(399)_H8]  14.3 % bound
9. TCCCTGCAATCGGTGCTCGAGAGGTTGGGTGGGTGGCTGAGGATCGATC (ssDNA) [AMX(398)_C12]  15.5 % bound
10. TCCCAGATGTGATCCGTATCCTGGTTTGGTTGGGTGGCTGAGGATCGATC (ssDNA) [AMX(398)_B3]  16.5 % bound
11. TCCCGATTATCCGTTGGTATTGTTGGTCTGGGTGGCTGAGGATCGATC (ssDNA) [AMX(398)_B12]  20.2 % bound
12. TCCCTTGATCTGGGGTGCGTTATTGTGGTTCGGGTGGCTGAGGATCGATC (ssDNA) [AMX(398)_E7]  20.3 % bound
13. TCCCATCGAACCTCGAGGGTATTGTTGGTTTGGGTGGCTGAGGATCGATC (ssDNA) [AMX(399)_H1]  20.4 % bound
14. TCCCGATCGTTTCGTGGGGTAGTGTTGGTTGGGGTGGCTGAGGATCGATC (ssDNA) [AMX(398)_C9]  20.7 % bound
15. TCCCATGATCGGGTCGGTATTTGTTGGTCAGGGTGGCTGAGGATCGATC (ssDNA) [AMX(398)_D3]  20.8 % bound
16. TCCCATCGATCCGGGGTATTCTTATTTCTGGGTGGCTGAGGATCGATC (ssDNA) [AMX(398)_E1]  20.9 % bound
17. TCCCTATCGAGCTGTGGTAGTATTCTGGTTTGGGTGGCTGAGGATCGATC (ssDNA) [AMX(398)_A7]  25.4 % bound
18. TCCCGATCGGACGTGGTGGGTTACTTCTGGGTGGCTGAGGATCGATC (ssDNA) [AMX(398)_E5]  25.4 % bound
19. TCCCTCGATCTTGGGGTACTATAGTGGTGTGGGTGGCTGAGGATCGATC (ssDNA) [AMX(398)_B10]  25.7 % bound
20. TCCCTATCGACCGGGGTTCTTTCGTGGTTCGGGTGGCTGAGGATCGATC (ssDNA) [AMX(398)_E8]  26.7 % bound
21. TCCCATTGATCTGTGGTGGTTTTGTGGTTTGGGTGGCTGAGGATCGATC (ssDNA) [AMX(398)_A2]  28.4 % bound
22. TCCCGTCGAGCCGGGGTATGATTATGGGTGGGGTGGCTGAGGATCGATC (ssDNA) [AMX(398)_A9]  29.7 % bound
23. TCCCATCGAGACGGGGTGTCTTTTGTGGCTTGGGTGGCTGAGGATCGATC (ssDNA) [AMX(398)_E6]  30.3 % bound
24. TCCCATCGATTTGGGGTATGTTATGGGCTCGGGTGGCTGAGGATCGATC (ssDNA) [AMX(398)_A6]  31.3 % bound
25. TCCCAATCGAGCCGGGGTTTGTTTGTTCTGGGTGGCTGAGGATCGATC (ssDNA) [AMX(398)_B1]  32.7 % bound
26. TCCCTTGTCGATTCTGGTATGTTTTGGTCCGGGTGGCTGAGGATCGATC (ssDNA) [AMX(398)_D7]  34.6 % bound
27. TCCCGGTTGTCGATTCTGGTATTGTTGGGCTGGGTGGCTGAGGATCGATC (ssDNA) [AMX(399)_H7]  36.1 % bound
28. TCCTGTCGATCGGTACGTTTTCGTTTCTGGGTGGCTGAGGATCGATC (ssDNA) [AMX(398)_C11]  36.7 % bound
29. TCCCAACGATCTGTGGTTTTTTTGTTCTGGGTGGCTGAGGATCGATC (ssDNA) [AMX(398)_C1]  37 % bound
30. TCCCTGGAGATCCGGGGTAGTATACTGGTTTGGGTGGCTGAGGATCGATC (ssDNA) [AMX(398)_A12]  37.5 % bound
31. TCCCGGATCTGTGGTAGGTTTGTTGGGTTGGGTGGCTGAGGATCGATC (ssDNA) [AMX(398)_E12]  39.9 % bound
32. TCCCGGATCCTCGTGGGTATTGTTGGGTTGGGTGGCTGAGGATCGATC (ssDNA) [AMX(399)_G12]  41.1 % bound
33. TCCCATCGGTCCGGGGTAATTTACTGGGTCGGGTGGCTGAGGATCGATC (ssDNA) [AMX(398)_A8]  43.9 % bound
